Laboratory results as given in the supplement of paper PMC12338614.
± gives the uncertainty stated by the source.

B1: library; numbered along this chain (parent)
chain: MEVVDPQQLGMFTEGELMSVGMDTFIHRIDSTEVIYQPRRKRAKLIGKYLMGDLLGEGSYGKVKEVLDSETLCRRAVKILKKKKLRRIPNGEANVKKEIQLLRRLRHKNVIQLVDVLYNEEKQKMYMVMEYCVCGMQEMLDSVPEKRFPVCQAHGYFCQLIDGLEYLHSQGIVHKDIKPGNLLLTTGGTLKISDLGVAEALHPFAADDTCRTSQGSPAFQPPEIANGLDTFSGFKVDIWSAGVTLYNITTGLYPFEGDNIYKLFENIGKGSYAIPGDCGPPLSDLLKGMLEYEPAKRFSIRQIRQHSWFRKKHPPAEAPVPIPPSPDTKDRWRSMTVVPYLEDLHGADEDEDLFDIEDDIIYTQDFTVPGQVPEEEASHNGQRRGLPKAVCMNGTEAAQLSTKSRAEGRAPNPARKACSASSKIRRLSACKQQ

Variants of: B1
Experiment: STK11 functional score (HeLa growth suppression), rescaled enrichment; synonymous median = 1, nonsense median = 0 (normalised score)
Conditions: with HeLa; variant type: missense
Method in brief: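 Functional scores are post/pre-selection log ratios corrected to wild type, rescaled to synonymous and nonsense medians, merged over codons and replicate transfections, and given bootstrapped error. They come from POPCode libraries of codon-optimised STK11 integrated by Bxb1 at an AAVS1 landing pad in HeLa, three regions each transfected three times, with BFP-negative, mCherry-positive integrants sorted by FACS and tiled gDNA amplicons sequenced on NextSeq.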

Compared with MEVVDPQQLGMFTEGELMSVGMDTFIHRIDSTEVIYQPRRKRAKLIGKYLMGDLLGEGSYGKVKEVLDSETLCRRAVKILKKKKLRRIPNGEANVKKEIQLLRRLRHKNVIQLVDVLYNEEKQKMYMVMEYCVCGMQEMLDSVPEKRFPVCQAHGYFCQLIDGLEYLHSQGIVHKDIKPGNLLLTTGGTLKISDLGVAEALHPFAADDTCRTSQGSPAFQPPEIANGLDTFSGFKVDIWSAGVTLYNITTGLYPFEGDNIYKLFENIGKGSYAIPGDCGPPLSDLLKGPLEYEPAKRFSIRQIRQHSWFRKKHPPAEAPVPIPPSPDTKDRWRSMTVVPYLEDLHGADEDEDLFDIEDDIIYTQDFTVPGQVPEEEASHNGQRRGLPKAVCMNGTEAAQLSTKSRAEGRAPNPARKACSASSKIRRLSACKQQ [M289P], MEVVDPQQLGMFTEGELMSVGMDTFIHRIDSTEVIYQPRRKRAKLIGKYLMGDLLGEGSYGKVKEVLDSETLCRRAVKILKKKKLRRIPNGEANVKKEIQLLRRLRHKNVIQLVDVLYNEEKQKMYMVMEYCVCGMQEMLDSVPEKRFPVCQAHGYFCQLIDGLEYLHSQGIVHKDIKPGNLLLTTGGTLKISDLGVAEALHPFAADDTCRTSQGSPAFQPPEIANGLDTFSGFKVDIWSAGVTLYNITTGLYPFEGDNIYKLFENIGKGSYAIPGDCGPPLSDLLKGMLEYEPAKRFSIRQIRQHSWFRKKHPPAEARVPIPPSPDTKDRWRSMTVVPYLEDLHGADEDEDLFDIEDDIIYTQDFTVPGQVPEEEASHNGQRRGLPKAVCMNGTEAAQLSTKSRAEGRAPNPARKACSASSKIRRLSACKQQ [P319R] is higher in STK11 functional score: -0.379 ± 0.11 for the first, 1.53 ± 0.26 for the second.

MEVVDPQQLGMFTEGELMSVGMDTFIHRIDSTEVIYQPRRKRAKLIGKYLMGDLLGEGSYGKVKEVLDSETLCRRAVKILKKKKLRRIPNGEANVKKEIQLLRRLRHKNVIQLVDVLYNEEKQKMYMVMEYCVCGMQEMLDSVPEKRFPVCQAHGYFCQLIDGLEYLHSQGIVHKDIKPGNLLTTTGGTLKISDLGVAEALHPFAADDTCRTSQGSPAFQPPEIANGLDTFSGFKVDIWSAGVTLYNITTGLYPFEGDNIYKLFENIGKGSYAIPGDCGPPLSDLLKGMLEYEPAKRFSIRQIRQHSWFRKKHPPAEAPVPIPPSPDTKDRWRSMTVVPYLEDLHGADEDEDLFDIEDDIIYTQDFTVPGQVPEEEASHNGQRRGLPKAVCMNGTEAAQLSTKSRAEGRAPNPARKACSASSKIRRLSACKQQ [L184T] and MEVVDPQQLGMFTEGELMSVGMDTFIHRIDSTEVIYQPRRKRAKLIGKYLMGDLLGEGSYGKVKEVLDSETLCRRAVKILKKKKLRRIPNGEANVKKEIQLLRRLRHKNVIQLVDVLYNEEKQKMYMVMEYCVCGMQEMLDSVPEKRFPVCQAHGYFCQLIDGLEYLHSQGIVHKDIKPGNLLLTTGGTLKISDLGVAEALHPFAADDTCRTSQGSPAFQPPEIANGLDTFSGFKVDIWSAGVTLYNITTGLYPFEGDNIYKLFENIGKGSYAIPGDCGPPLSDLLKGMLEYEPAKRFNIRQIRQHSWFRKKHPPAEAPVPIPPSPDTKDRWRSMTVVPYLEDLHGADEDEDLFDIEDDIIYTQDFTVPGQVPEEEASHNGQRRGLPKAVCMNGTEAAQLSTKSRAEGRAPNPARKACSASSKIRRLSACKQQ [S299N] are within error of each other in STK11 functional score: 1.49 ± 0.24 for the first, 1.59 ± 0.16 for the second.

MEVVDPQQLGMFTEGELMSVGMDTFIHRIDSTEVIYQPRRKRAKLIGKYLMGDLLGEGSYGKVKEVLDSETLCRRAVKILKKKKLRRIPNGEANVKKEIQLLRRLRHKNVIQLVDVLYNEEKQKMYMVMEYCVCGMQEMLDSVPEKRFPVCQAHGYFCQLIDGLEYLHSQGIVHKDIKPGNLLLTTGGTLKISDLGVAEALHPFAADDTCRTSQGSPAFQPPEIANGLDTFSGFKVDIWSAGVTLYNITTGLYPFEGDNIYKLFENIGKGSYAIPGDCGPPLSDLLKGMLEYEPAKRFSIRQIRQHSWFRKKHPPAEAPVPIPPSPDTKDRWRSMTVVPYLEDLHGADEDEDLFDIEDDIIYTQDFTVPGQVPEEEASHNGQRRGLPKAVCMNGTEAAQWSTKSRAEGRAPNPARKACSASSKIRRLSACKQQ [L400W] and MEVVDPQQLGMFTEGELMSVGMDTFIHRIDSTEVIYQPRRKRAKLIGKYLMGDLLGEGSYGKVKEVLDSETLCRRAVKILKKKKLRRIPNGEANVKKEIQLLRRLRHKNVIQLVDVLYNEEKQKMYMVMEYCVCGMQEMLDSVPEKRFPVRQAHGYFCQLIDGLEYLHSQGIVHKDIKPGNLLLTTGGTLKISDLGVAEALHPFAADDTCRTSQGSPAFQPPEIANGLDTFSGFKVDIWSAGVTLYNITTGLYPFEGDNIYKLFENIGKGSYAIPGDCGPPLSDLLKGMLEYEPAKRFSIRQIRQHSWFRKKHPPAEAPVPIPPSPDTKDRWRSMTVVPYLEDLHGADEDEDLFDIEDDIIYTQDFTVPGQVPEEEASHNGQRRGLPKAVCMNGTEAAQLSTKSRAEGRAPNPARKACSASSKIRRLSACKQQ [C151R] are within error of each other in STK11 functional score: 1.56 ± 0.3 for the first, 1.07 ± 0.59 for the second.

MEVVDPQQLGMFTEGELMSVGMDTFIHRIDSTEVIYQPRRKRAKLIGKYLMGDLLGEGSYGKVKEVLDSETLCRRAVKILKKKKLRRIPNGEANVKKEIQLLRRLRHKNVIQLVDVLYNEEKQKMYMVMEYCVCGMQEMLDSVPEKRFPVCQAHGYFCQLIDGLEYLHSQGIVHKDIKPGNLLLTTGGTLKISDLGVAEALHPFAADDTCRTSQGSPAFQPPEIANGLDTFSGFKVDIWSAGVTLYNITTGLYPFEGDNIYKLFENIGKGSYAIPGDCGPNLSDLLKGMLEYEPAKRFSIRQIRQHSWFRKKHPPAEAPVPIPPSPDTKDRWRSMTVVPYLEDLHGADEDEDLFDIEDDIIYTQDFTVPGQVPEEEASHNGQRRGLPKAVCMNGTEAAQLSTKSRAEGRAPNPARKACSASSKIRRLSACKQQ [P281N] and MEVVDPQQLGMFTEGELMSVGMDTFIHRIDSTEVIYQPRRKRAKLIGKYLMGDLLGEGSYGKVKEVLDSETLCRRAVKILKKKKLRRIPNGEANVKKEIQQLRRLRHKNVIQLVDVLYNEEKQKMYMVMEYCVCGMQEMLDSVPEKRFPVCQAHGYFCQLIDGLEYLHSQGIVHKDIKPGNLLLTTGGTLKISDLGVAEALHPFAADDTCRTSQGSPAFQPPEIANGLDTFSGFKVDIWSAGVTLYNITTGLYPFEGDNIYKLFENIGKGSYAIPGDCGPPLSDLLKGMLEYEPAKRFSIRQIRQHSWFRKKHPPAEAPVPIPPSPDTKDRWRSMTVVPYLEDLHGADEDEDLFDIEDDIIYTQDFTVPGQVPEEEASHNGQRRGLPKAVCMNGTEAAQLSTKSRAEGRAPNPARKACSASSKIRRLSACKQQ [L101Q] are within error of each other in STK11 functional score: 1.66 ± 0.19 for the first, 0.894 ± 1 for the second.

MEVVDPQQLGMFTEGELMSVGMDTFIHRIDSTEVIYQPRRKRAKYIGKYLMGDLLGEGSYGKVKEVLDSETLCRRAVKILKKKKLRRIPNGEANVKKEIQLLRRLRHKNVIQLVDVLYNEEKQKMYMVMEYCVCGMQEMLDSVPEKRFPVCQAHGYFCQLIDGLEYLHSQGIVHKDIKPGNLLLTTGGTLKISDLGVAEALHPFAADDTCRTSQGSPAFQPPEIANGLDTFSGFKVDIWSAGVTLYNITTGLYPFEGDNIYKLFENIGKGSYAIPGDCGPPLSDLLKGMLEYEPAKRFSIRQIRQHSWFRKKHPPAEAPVPIPPSPDTKDRWRSMTVVPYLEDLHGADEDEDLFDIEDDIIYTQDFTVPGQVPEEEASHNGQRRGLPKAVCMNGTEAAQLSTKSRAEGRAPNPARKACSASSKIRRLSACKQQ [L45Y] and MEVVDPQQLGMFTEGELMSVGMDTFIHRIDSTEVIYQPRRKRAKLIGKYLMGDLLGEGSYGKVKEVLDSETLCRRAVKILKKKKLRRIPNGEANVKKEIQLLRRLRHKNVIQLVDVLYNEEKQKMYMVMEYCVCGMQEMLDSVPEKRFPVCQAHGYFCQLIDGLEYLHSQGIVHKDIKPGNLLLTTGGTLKISDLGVAEALHPFAADDTCRTSQGSPAFQPPEIANGLDTFSGFKVDIWSAGVTLYNITTGLYPFEGDNIYKLFENIGKGSYAIPGDCGPPLSDLLKGMLEYEPAKRFSIRQIRQHSWFRKKHPPAEAPVPIPPAPDTKDRWRSMTVVPYLEDLHGADEDEDLFDIEDDIIYTQDFTVPGQVPEEEASHNGQRRGLPKAVCMNGTEAAQLSTKSRAEGRAPNPARKACSASSKIRRLSACKQQ [S325A] are within error of each other in STK11 functional score: 0.913 ± 0.38 for the first, 1.05 ± 0.5 for the second.

MEVVDPQQLGMFTEGELMSVGMDTFIHRIDSTEVIYQPRRKRAKLIGKYLMGDLLGEGSYGKVKEVLDSETLCRRAVKILKKKKLRRIPNGEANVKKEIQLLRRLRHKNVIQLVDVLYNEEKQKMYMVMEYCVCGMQEMLDSFPEKRFPVCQAHGYFCQLIDGLEYLHSQGIVHKDIKPGNLLLTTGGTLKISDLGVAEALHPFAADDTCRTSQGSPAFQPPEIANGLDTFSGFKVDIWSAGVTLYNITTGLYPFEGDNIYKLFENIGKGSYAIPGDCGPPLSDLLKGMLEYEPAKRFSIRQIRQHSWFRKKHPPAEAPVPIPPSPDTKDRWRSMTVVPYLEDLHGADEDEDLFDIEDDIIYTQDFTVPGQVPEEEASHNGQRRGLPKAVCMNGTEAAQLSTKSRAEGRAPNPARKACSASSKIRRLSACKQQ [V143F] and MEVVDPQQLGMFTEGELMSVGMDTFIHRIDSTEVIYQPRRKRAKLIGKYLMGDLLGEGSYGKVKEVLDSETLCRRAVKILKKKKLRRIPNGEANVKKEIQLLRRLRHKNVIQLVDVLYNEEKQKMYMVMEYCVCGMQEMLDSVPEKRFPVCQAHGYFCQLIDGLEYLHSQGIVHKDIKPGNLLLTTGGTLKISDLGVAEALHPFAADDTCRTSQGSPAFQPPEIANGLDTFSGFKVDIWSAGVTLYNITTGLYPFEGSNIYKLFENIGKGSYAIPGDCGPPLSDLLKGMLEYEPAKRFSIRQIRQHSWFRKKHPPAEAPVPIPPSPDTKDRWRSMTVVPYLEDLHGADEDEDLFDIEDDIIYTQDFTVPGQVPEEEASHNGQRRGLPKAVCMNGTEAAQLSTKSRAEGRAPNPARKACSASSKIRRLSACKQQ [D258S] are within error of each other in STK11 functional score: 1.01 ± 0.28 for the first, 1.42 ± 0.44 for the second.

First: MEVVDPQQLGMFTEGELMSVGMDTFIHRIDSTEVIYQPRRKRAKLIGKYLMGDLLGEGSYGKVKEVLDSETLCRRAVKILKKKKLRRIPNGEANVKKEIQLLRRLRHKNVIQLVDVLYNEEKQKMYMVMEYCVCGMQEMLDSAPEKRFPVCQAHGYFCQLIDGLEYLHSQGIVHKDIKPGNLLLTTGGTLKISDLGVAEALHPFAADDTCRTSQGSPAFQPPEIANGLDTFSGFKVDIWSAGVTLYNITTGLYPFEGDNIYKLFENIGKGSYAIPGDCGPPLSDLLKGMLEYEPAKRFSIRQIRQHSWFRKKHPPAEAPVPIPPSPDTKDRWRSMTVVPYLEDLHGADEDEDLFDIEDDIIYTQDFTVPGQVPEEEASHNGQRRGLPKAVCMNGTEAAQLSTKSRAEGRAPNPARKACSASSKIRRLSACKQQ [V143A]
Second: MEVVDPQQLGMFTEGELMSVGMDTFIHRIDSTEVIYQPRRKRAKLIGKYLMGDLLGEGSYGKVKEVLDSETLCRRAVKILKKKKLRRIPNGEANVKKEIQLLRRLRHKNVIQLVDVLYNEEKQKMYMVMEYCVCKMQEMLDSVPEKRFPVCQAHGYFCQLIDGLEYLHSQGIVHKDIKPGNLLLTTGGTLKISDLGVAEALHPFAADDTCRTSQGSPAFQPPEIANGLDTFSGFKVDIWSAGVTLYNITTGLYPFEGDNIYKLFENIGKGSYAIPGDCGPPLSDLLKGMLEYEPAKRFSIRQIRQHSWFRKKHPPAEAPVPIPPSPDTKDRWRSMTVVPYLEDLHGADEDEDLFDIEDDIIYTQDFTVPGQVPEEEASHNGQRRGLPKAVCMNGTEAAQLSTKSRAEGRAPNPARKACSASSKIRRLSACKQQ [G135K]
The STK11 functional score of the first is lower: 1.34 ± 0.084 for the first, 1.63 ± 0.18 for the second.
